Literature values in PMC4243993.

Molecular target: His105 (UniProt position 105, PPVKIHCSILA)

Substance: Iron-sulfur cluster assembly scaffold protein IscU (Escherichia coli)
- pKa: around 9
